# Assay results reported in patent US20180021429A1, “ANTICANCER AGENTS OR ANTIMETASTATIC AGENTS USING FSTL1 AND COMBINATION DRUG THEREOF” (PHARMA FOODS INTERNATIONAL CO., LTD., priority 2015, published 2018).
# T1: FSTL1 (Homo sapiens, UniProt Q12841)
# T1 sequence (Q12841 21-308): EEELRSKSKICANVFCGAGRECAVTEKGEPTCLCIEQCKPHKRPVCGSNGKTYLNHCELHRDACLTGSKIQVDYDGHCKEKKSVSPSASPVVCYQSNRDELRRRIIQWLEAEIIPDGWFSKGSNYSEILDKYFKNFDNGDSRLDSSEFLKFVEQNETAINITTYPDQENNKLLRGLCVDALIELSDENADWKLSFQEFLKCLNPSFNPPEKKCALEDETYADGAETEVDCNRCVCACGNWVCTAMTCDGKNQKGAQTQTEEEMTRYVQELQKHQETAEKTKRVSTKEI
# B1: #10: chicken-mouse chimeric anti-FSTL1 antibody clone; variable regions SEQ ID NO: 811 (light), 813 (heavy) (antibody, V domains shown)
# VH: AVTLDESGGGLQTPGGALSLVCKASGFFFFRIYDMGWVRQAPGKGLEWVAGIDDYGRYTGYGSAVKGRATISRDNGQSTVRLQLNNLRAEDTGTYYCARGAGTGCNSAGCGAYAGSIDAWGHGTEVIVSS
# VL: ASTQPSSVSANPGETVKLTCSGGGSRYGWYQQKSPGSAPVTVIYYNDKRPSDIPSRFSGSKSGSTATLTITGVQAEDEAVYFCGGYDGSRDAGIFGAGTTLTVL
# modifications: mouse constant regions
# Columns and labels:
# [1] = tested on: C57/BL/6 mouse-derived bone marrow cells; assay: MSC induction inhibition test using mouse bone marrow cells, FSTL1 stimulation (Example 27); format: cell-based; settings: FSTL1 20 ng/mL; antibody 10 μg/mL; 8 days; FIG. 21A
# Method: (§1) In this Example, the inhibitory activity of the anti-FSTL1 antibody was confirmed in an experimental system of mesenchymal stem cell induction while a FSTL1 inhibitory effect on MSC expansion induced not only by FSTL1 but by Snail+ tumor cells was also evaluated. For specific operation, each antibody (10 μg/mL) was added to systems in which C57/BL/6 mouse-derived bone marrow cells were stimulated with FSTL1 (20 ng/mL) or a culture supernatant of tumor cells. After culture for 8 days under stimulation, cell fraction CD45(−) cells (MSCs) containing MSCs at a high rate and CD45(−)CD146(+)ALCAM(+) cells (sMSCs) increasing in number in association with cancer metastasis were analyzed by flow cytometry in the same way as in Example 14, and the number of cells per culture system was counted. In this Example, mouse immunoglobulin manufactured by BioLegend, Inc. (#401408, Cone MG1-45) was used as a control antibody.
# [2] = tested on: C57/BL/6 mouse-derived spleen cells; assay: Treg induction inhibition test using mouse spleen cells (Example 28); format: cell-based; settings: FSTL1 5 ng/ml; antibody 5 μg/mL; 3 days; FIG. 22
# Method: (§2) In this Example, the experiment was conducted according to Example 17. Specifically, 5 μg/mL of each antibody was added to a system in which C57/BL/6 mouse-derived spleen cells (2×10^6 cells) were stimulated with 5 ng/ml of FSTL1. After culture for 3 days, the percentage (%) of a Foxp3+CTLA4+ cell fraction in CD4+ T cells was analyzed as Treg cells by flow cytometry. Activity was compared with #6-55 used in the preceding studies.
# [3] = tested on: GFP+F10-snail+ tumor cells; assay: In vivo drug efficacy of each anti-FSTL1 antibody clone, Snail+ tumor bone metastasis model (Example 32); set-up: species or system mouse
# Method: (§3) • Day 0: transplantation of GFP+F10-snail+ tumor cells (3×10^5 cells subcutaneously & 2×10^4 cells intravenously) • Day 4: intraperitoneal administration of the antibody (first dose, 10 mg/kg) • Day 7: intraperitoneal administration of the antibody (second dose, 10 mg/kg)
# (§4) Subcutaneous tumor was measured 4, 7, 10, 14, 17, 20, and 23 days after tumor cell transplantation.
# FSTL1 [4] = target: T1, FSTL1; assay: Affinity of mouse chimeric antibodies, Biacore T-200 (Example 33); format: binding
# Method: (§5) The mouse chimeric antibodies were immobilized onto Sensor Chip CM5 (GE Healthcare Japan Corp., BR-1005-30) using Mouse Antibody Capture Kit (GE Healthcare Japan Corp., BR-1008-38), and their affinity for human FSTL1 was calculated using Biacore T-200 (GE Healthcare Japan Corp.).
# First, the exhaustive activity comparison of the obtained antibodies was conducted with the human FSTL1 concentration fixed to 10 μg/ml (Table 33-1, FIG. 28).
# Next, the KD values of clone #6-55, #7-34, and #13 presumed to have high affinity in FIG. 28 were calculated with the antigen concentration adjusted to 0 to 20 μg/ml (Table 35-2).
# [5] = tested on: C57/BL/6 mouse-derived bone marrow cells; assay: MSC induction inhibition test using mouse bone marrow cells stimulated with FSTL1 (Example 27); format: cell-based; settings: FSTL1 20 ng/mL, antibody 10 μg/mL, 8 days; flow cytometry; FIG. 115A
# Method: as §1
# [6] = tested on: C57/BL/6 mouse-derived spleen cells; assay: Treg induction inhibition test using mouse spleen cells stimulated with FSTL1 (Example 28); format: cell-based; settings: FSTL1 5 ng/ml, antibody 5 μg/mL, 3 days; FIG. 116
# Method: as §2
# [7] = tested on: GFP+F10-snail+ tumor cells; assay: In vivo drug efficacy of each anti-FSTL1 antibody clone, GFP+F10-snail+ tumor model (Example 32); set-up: species or system mouse
# Method: as §3, §4
# FSTL1 [8] = target: T1, FSTL1; assay: Biacore T-200 affinity of mouse chimeric antibodies for human FSTL1 (Example 33); format: binding
# Method: as §5
# First, the exhaustive activity comparison of the obtained antibodies was conducted with the human FSTL1 concentration fixed to 10 μg/ml (Table 33-1, FIG. 122).
# Next, the KD values of clone #6-55, #7-34, and #13 presumed to have high affinity in FIG. 122 were calculated with the antigen concentration adjusted to 0 to 20 μg/ml (Table 35-2).
# [9] = tested on: GFP+F10-snail+ tumor cells; assay: In vivo drug efficacy of each anti-FSTL1 antibody clone, GFP+F10-snail+ tumor model (Example 32); set-up: species or system mouse; remark: listed apart in the source
# Method: as §3, §4
# Experiment Group (n=5) Control IgG (anti-DNP mAb) • #6-55 • #7 • #10 • #13 • #33
# • Day 0: transplantation of GFP+F10-snail+ tumor cells (3×10^5, cells subcutaneously & 2×10^4 cells intravenously) • Day 4: intraperitoneal administration of the antibody (first dose, 10 mg/kg) • Day 7: intraperitoneal administration of the antibody (second dose, 10 mg/kg)
# FSTL1 [10] = target: T1, FSTL1; assay: Affinity of mouse chimeric antibodies for human FSTL1, Biacore T-200 (Example 33); format: binding
# Method: as §5
# First, the exhaustive activity comparison of the obtained antibodies was conducted with the human FSTL1 concentration fixed to 10 μg/ml (Table 33-1, FIG. 58).
# Next, the KD values of clone #6-55, #7-34, and #13 presumed to have high affinity in FIG. 58 were calculated with the antigen concentration adjusted to 0 to 20 μg/ml (Table 35-2).
# First, the exhaustive activity comparison of the obtained antibodies was conducted with the human FSTL1 concentration fixed to 10 μg/ml (Table 33-1, FIG. 90).
# Next, the KD values of clone #6-55, #7-34, and #13 presumed to have high affinity in FIG. 90 were calculated with the antigen concentration adjusted to 0 to 20 μg/ml (Table 35-2).
# FSTL1 [11] = target: T1, FSTL1; assay: MSC induction inhibition test using mouse bone marrow cells stimulated with FSTL1 (Example 27); format: cell-based; set-up: purchased R&D Systems, Inc. 1694-FN-050; settings: FSTL1 20 ng/mL, antibody 10 μg/mL, 8 days
# Method: as §1, with “([…],” for “(#401408,”
# as §1
# FSTL1 [12] = target: T1, FSTL1; assay: Treg induction inhibition test using mouse spleen cells stimulated with FSTL1 (Example 28); format: cell-based; set-up: purchased R&D Systems, Inc. 1694-FN-050; settings: FSTL1 5 ng/ml, antibody 5 μg/mL, 3 days
# Method: as §2
# as §2, with “[…]” for “#6-55”
molecule,measurement,setting,value
B1,"MSC induction inhibitory activity (CD45(−) MSCs, CD45(−)CD146(+)ALCAM(+) sMSCs)",[1],high MSC induction inhibitory activity equivalent to or higher than that of #6-55
same,Treg induction (Foxp3+CTLA4+ cell fraction in CD4+ T cells),[2],strong suppressive activity equal to or higher than that of #6-55
same,mouse survival period (life-prolonging effect),"[3]; intraperitoneal 10 mg/kg on days 4 and 7, FIG. 27",therapeutic effects equal to or higher than those of #6-55
same,comprehensive evaluation of antitumor activity,"[3]; mouse, in vivo",high antitumor activity exceeding that of #6-55
same,affinity in surface plasmon resonance assay,FSTL1 [4],strong affinity
same,MSC induction inhibitory effect,[5],strong inhibitory effect equivalent to or higher than that of #6-55
same,Treg induction (Foxp3+CTLA4+ fraction in CD4+ T cells),[6],strong suppressive activity equal to or higher than that of #6-55
same,mouse survival period (life-prolonging effect),"[7]; intraperitoneal 10 mg/kg on days 4 and 7, FIG. 121",therapeutic effects equal to or higher than those of #6-55
same,comprehensive evaluation of antitumor activity,[7]; stated as a possibility,high antitumor activity exceeding that of #6-55
same,affinity in an assay system using surface plasmon resonance,FSTL1 [8],strong affinity
same,mouse survival period (life-prolonging effect),"[9]; intraperitoneal 10 mg/kg on days 4 and 7, vs control antibody",therapeutic effects equal to or higher than those of #6-55
same,comprehensive evaluation of antitumor activity,"[9]; mouse, in vivo",high antitumor activity exceeding that of #6-55
same,affinity in an assay system using surface plasmon resonance,FSTL1 [10],strong affinity
same,"MSC induction inhibitory activity, reproducibility confirmed",FSTL1 [11],high MSC induction inhibitory activity equivalent to or higher than that of #6-55
same,"inhibitory effect in the MSC induction inhibition test (CD45(−) MSCs and sMSCs, flow cytometry)",FSTL1 [11],strong inhibitory effect equivalent to or higher than that of #6-55
same,Treg induction (Foxp3+CTLA4+ fraction in CD4+ T cells),FSTL1 [12],strong suppressive activity equal to or higher than that of #6-55
